Target: CD45 on human peripheral blood mononuclear cells (human (endogenous in PBMC)) (UniProt P08575)
UniProt P08575, sequence (P08575 26-1306): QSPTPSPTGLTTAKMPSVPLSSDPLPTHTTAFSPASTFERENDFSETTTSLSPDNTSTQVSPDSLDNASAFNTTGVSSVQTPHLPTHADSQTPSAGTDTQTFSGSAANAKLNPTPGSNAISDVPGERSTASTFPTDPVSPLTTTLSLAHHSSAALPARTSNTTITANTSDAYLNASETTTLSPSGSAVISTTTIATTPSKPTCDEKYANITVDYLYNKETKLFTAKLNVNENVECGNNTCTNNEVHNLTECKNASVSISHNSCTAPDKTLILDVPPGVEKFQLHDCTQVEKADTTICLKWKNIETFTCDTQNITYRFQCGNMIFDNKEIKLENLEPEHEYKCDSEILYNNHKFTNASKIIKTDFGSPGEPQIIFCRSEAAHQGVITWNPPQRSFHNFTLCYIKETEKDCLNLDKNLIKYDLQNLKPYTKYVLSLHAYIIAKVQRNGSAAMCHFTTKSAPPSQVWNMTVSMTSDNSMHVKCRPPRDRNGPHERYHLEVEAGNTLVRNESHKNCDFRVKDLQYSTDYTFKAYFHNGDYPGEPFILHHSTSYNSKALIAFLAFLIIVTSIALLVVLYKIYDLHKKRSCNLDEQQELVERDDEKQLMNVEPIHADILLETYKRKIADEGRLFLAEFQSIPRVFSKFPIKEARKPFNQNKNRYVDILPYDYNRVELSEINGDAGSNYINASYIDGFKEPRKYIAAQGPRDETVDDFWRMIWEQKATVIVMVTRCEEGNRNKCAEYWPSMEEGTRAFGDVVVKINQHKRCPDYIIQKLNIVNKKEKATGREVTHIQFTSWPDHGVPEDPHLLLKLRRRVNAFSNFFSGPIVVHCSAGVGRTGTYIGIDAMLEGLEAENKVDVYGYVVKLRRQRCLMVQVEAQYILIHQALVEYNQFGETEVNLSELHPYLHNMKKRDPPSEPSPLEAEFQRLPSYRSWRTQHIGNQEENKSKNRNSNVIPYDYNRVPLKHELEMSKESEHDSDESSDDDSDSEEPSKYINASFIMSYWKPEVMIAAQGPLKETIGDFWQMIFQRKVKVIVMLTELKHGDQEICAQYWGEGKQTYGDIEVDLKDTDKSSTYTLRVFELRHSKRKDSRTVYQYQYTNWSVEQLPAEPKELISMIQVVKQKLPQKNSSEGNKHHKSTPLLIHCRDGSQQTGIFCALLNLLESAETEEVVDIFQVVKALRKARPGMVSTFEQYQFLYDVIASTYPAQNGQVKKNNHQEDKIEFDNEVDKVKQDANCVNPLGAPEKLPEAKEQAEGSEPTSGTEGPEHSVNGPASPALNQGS

Substance: HAdV-D64 (Ad19a) protein E3/49K expressed on porcine L23 cells (natural protein)
- phosphorylated p56lck(p505) in CD4+ T cells of human PBMC stimulated for 48 h with L23-E3/49K cells (15–20% with L23-control or L23-UL11 cells), intracellular flow cytometry (% of CD4+ T cells): 40
